From patent US11156615B2 (priority 2015, dated 2021) come the findings set out here.

The nature of series [1]: Thermostability: mid-point thermal denaturation temperature (Tm) from temperature-dependent fluorescence (Roche LightCycler). In kind it is physicochemical. As to conditions: apo-protein. The source says: Protein (un)folding is monitored by binding of SYPRO to the unfolded state as a function of temperature. Fluorescence intensity increases upon binding of SYPRO by the unfolded state.
Panels A-C: ttGBP182C.2.0-Imm0; Panels D-F: ttGBP182C.2.0-Imm1 (see FIG. 13). (A) Solution (Tm=347.6K). (B) Immobilized on Nickel-nitriloacetic acid (Ni-NTA) beads (Tm=346.7K). (C) Reconstituted, desiccated Ni-NTA beads (Tm=347.6K). (D) Fluorescence response of ttGGBP5.2 Imm1 immobilized on NHS-functionalized agarose beads. Data was collected on a Roche LightCycler real-time PCS instrument, recording emission intensities at 488 nm and 510 nm as a function of temperature in a 384-well microtiter plate. […] Temperature melts of twelve different wells. Apo protein thermostability as reported by the denaturation mid-point temperature is 349 K, similar to the protein free in solution. […] (F) Representative Langmuir ligand-binding curve extracted from the three-dimensional data.
Temperatures were advanced in 1K steps. […] Under these experimental photobleaching was not observed.

Series [2] can be described thus: Glucose binding: isothermal fluorescence titrations, ratiometric (appKd) and monochromatic (trueKd) fits. As to conditions: room temperature. An excerpt:
2 For a single glucose-binding site, the fractional saturation is given by
[formula] where ^apoIλ2 and ^satIλ2 are the emission intensities of the monochromatic signal at wavelength λ2 of the ligand-free and ligand-bound protein, respectively.

A short description of series [3]: Galactose binding: isothermal fluorescence titrations of conjugates. Further details: key to Galactose trueKd: nb, no bonding. The conditions noted are these: for S, selectivity = trueKd(galactose)/trueKd(glucose) / Kd: Acrylodan conjugate; for S, selectivity = trueKd(galactose)/trueKd(glucose): S > 1, selective for glucose; for Kd: read-out: Galactose trueKd.
[4] abbreviates: read-out: Glucose appKd, Acrylodan conjugate, dichromatic ratiometry.
The mark [5] stands for this setting: read-out: Glucose trueKd, Acrylodan conjugate, monochromatic titration curves.
[6] abbreviates: monochromatic titration curves, room temperature.

B1: ttGGBP17C.21: affinity-tuning mutant, 17C background, SEQ ID NO: 79 (protein)
chain: MKQLNIGVAIYKFDDTCMTGVRNAMTAEAQGKAKLNMVDSQNSQPTQNDQVDLFITKKMNALAINPVDRTAAGTIIDKAKQANIPVVFFNREPLPEDMKKWDKVYYVGAKAEQSGILQGQIMADYWKAHPEADKNHDGVMQYVMLMGQPGHQDAILRTQYSIQTVKDAGIKVQELAKDYANWDRVTAHDKMAAWLSSFGDKIEAVFANNDDMALGAIEALKSAGYFTGNKYIPVVGVDATAPGIQAIKDGTLLGTVLADAKNQAKATFNIAYELAQGITPTKDNIGYDITDGKYVWIPYKKITKDNISDAEQGGSHHHHHH
modifications: ttGGBP17C.21 (affinity-tuning mutant, 17C background (Table 6) with signal peptide replaced with M and GGSHHHHHH at C-terminus)
B1 returned an apoTm in series [1] (Badan conjugate) of 345 K. The Kd came to 61 mM in series [2] (read-out: Glucose appKd, Badan conjugate, dichromatic ratiometry) and 69 mM in series [2] (read-out: Glucose trueKd, Badan conjugate, monochromatic titration curves). Also, the “Galactose trueKd” value in series [3] (Badan conjugate, monochromatic titration curves, room temperature) is on record as “nb”.

B2: ttGGBP182C.2.3: affinity-tuning mutant, 182C background, SEQ ID NO: 90 (protein)
chain: MKQLNIGVAIYKFDDTFMTGVRNAMTAEAQGKAKLNMVDSQNSQPTQNDQVDLFITKKMNALAINPVDRTAAGTIIDKAKQANIPVVFFNKEPLPEDMKKWDKVYYVGAKAEQSGILQGQIMADYWKAHPEADKNHDGVMQYVMLMGEPGHQDNILRTQYSIQTVKDAGIKVQELAKDYANCDRVTAHDKMAAWLSSFGDKIEAVFANNDDMALGAIEALKSAGYFTGNKYIPVVGVDATAPGIQAIKDGTLLGTVLNDAKNQAKATFNIAYELAQGITPTKDNIGYDITDGKYVWIPYKKITKDNISDAEQGGSHHHHHH
modifications: ttGGBP182C.2.3 (affinity-tuning mutant, 182C background (Table 6) with signal peptide replaced with M and GGSHHHHHH at C-terminus)
In series [1] (Acrylodan conjugate), B2 had an apoTm of 346 K. Moreover, the Kd in series [2] (setting [4]) came to 16.3 mM; in series [2] (setting [5]) it was 19 mM. Moreover, the “S, selectivity = trueKd(galactose)/trueKd(glucose)” value in series [3] is on record as 10.9.

B3: ttGGBP182C.2.5: affinity-tuning mutant, 182C background, SEQ ID NO: 92 (protein)
chain: MKQLNIGVAIYKFDDTFMTGVRNAMTAEAQGKAKLNMVDSQNSQPTQNDQVDLFITKKMNALAINPVDRTAAGTIIDKAKQANIPVVFFNKEPLPEDMKKWDKVYYVGAKAEQSGILQGQIMADYWKAHPEADKNHDGVMQYVMLMGEPGQQDAILRTQYSIQTVKDAGIKVQELAKDYANCDRVTAHDKMAAWLSSFGDKIEAVFANNDDMALGAIEALKSAGYFTGNKYIPVVGVDATAPGIQAIKDGTLLGTVLNDAKNQAKATFNIAYELAQGITPTKDNIGYDITDGKYVWIPYKKITKDNISDAEQGGSHHHHHH
modifications: ttGGBP182C.2.5 (affinity-tuning mutant, 182C background (Table 6) with signal peptide replaced with M and GGSHHHHHH at C-terminus)
For the molecule B3, the apoTm in series [1] (Acrylodan conjugate) is 346 K. For the same molecule, the Kd came to 10.8 mM in series [2] (setting [4]), 13 mM in series [2] (setting [5]) and 20.3 mM in series [3] (setting [6]). In series [3], the “S, selectivity = trueKd(galactose)/trueKd(glucose)” value turned out to be 1.6.

B4: ttGGBP182C.2.6: affinity-tuning mutant, 182C background, SEQ ID NO: 93 (protein)
chain: MKQLNIGVAIYKFDDTFMTGVRNAMTAEAQGKAKLNMVDSQNSQPTQNDQVDLFITKKMNALAINPVDRTAAGTIIDKAKQANIPVVFFNKEPLPEDMKKWDKVYYVGAKAEQSGILQGQIMADYWKAHPEADKNHDGVMQYVMLMGEPGNQDAILRTQYSIQTVKDAGIKVQELAKDYANCDRVTAHDKMAAWLSSFGDKIEAVFANNDDMALGAIEALKSAGYFTGNKYIPVVGVDATAPGIQAIKDGTLLGTVLNDAKNQAKATFNIAYELAQGITPTKDNIGYDITDGKYVWIPYKKITKDNISDAEQGGSHHHHHH
modifications: ttGGBP182C.2.6 (affinity-tuning mutant, 182C background (Table 6) with signal peptide replaced with M and GGSHHHHHH at C-terminus)
In turn, B4 yielded an apoTm in series [1] (Acrylodan conjugate) of 347 K. Further, the Kd in series [2] (setting [4]) is 19.2 mM; in series [2] (setting [5]), 17.9 mM; in series [3] (setting [6]), 52.6 mM. In series [3], the “S, selectivity = trueKd(galactose)/trueKd(glucose)” value was 2.9.

B5: ttGGBP182C.2.0: affinity-tuning mutant, 182C background (R91K, Q148E), SEQ ID NO: 88 and 298 (protein)
chain: MKQLNIGVAIYKFDDTFMTGVRNAMTAEAQGKAKLNMVDSQNSQPTQNDQVDLFITKKMNALAINPVDRTAAGTIIDKAKQANIPVVFFNKEPLPEDMKKWDKVYYVGAKAEQSGILQGQIMADYWKAHPEADKNHDGVMQYVMLMGEPGHQDAILRTQYSIQTVKDAGIKVQELAKDYANCDRVTAHDKMAAWLSSFGDKIEAVFANNDDMALGAIEALKSAGYFTGNKYIPVVGVDATAPGIQAIKDGTLLGTVLNDAKNQAKATFNIAYELAQGITPTKDNIGYDITDGKYVWIPYKKITKDNISDAEQGGSHHHHHH
modifications: ttGGBP182C.2.0 (affinity-tuning mutant, 182C background (Table 6) with signal peptide replaced with M and GGSHHHHHH at C-terminus)
B5 yielded an apoTm in series [1] (Acrylodan conjugate) of 346 K. The figures for the Kd in series [2] (setting [4]), in series [2] (setting [5]) and in series [3] (setting [6]) were 4.5 mM, 6 mM and 18.5 mM, respectively. Further, the “S, selectivity = trueKd(galactose)/trueKd(glucose)” value in series [3] is 3.1.

B6: ttGGBP182C.2.1: affinity-tuning mutant, 182C background, SEQ ID NO: 89 (protein)
chain: MKQLNIGVAIYKFDDTFMTGVRNAMTAEAQGKAKLNMVDSQNSQPTQNDQVDLFITKKMNALAINPVDRTAAGTIIDKAKQANIPVVFFNKEPLPEDMKKWDKVYYVGAKAEQSGILQGQIMADYWKAHPEADKNHDGVMQYVMLMGEPGHQDSILRTQYSIQTVKDAGIKVQELAKDYANCDRVTAHDKMAAWLSSFGDKIEAVFANNDDMALGAIEALKSAGYFTGNKYIPVVGVDATAPGIQAIKDGTLLGTVLNDAKNQAKATFNIAYELAQGITPTKDNIGYDITDGKYVWIPYKKITKDNISDAEQGGSHHHHHH
modifications: ttGGBP182C.2.1 (affinity-tuning mutant, 182C background (Table 6) with signal peptide replaced with M and GGSHHHHHH at C-terminus)
For the molecule B6, the apoTm in series [1] (Acrylodan conjugate) is given as 328 K. Moreover, the Kd in series [2] (setting [4]) was determined as 3 mM; in series [2] (setting [5]), 4.1 mM; in series [3] (setting [6]) it was 13.1 mM. The “S, selectivity = trueKd(galactose)/trueKd(glucose)” value in series [3] stood at 3.2.
